± gives the uncertainty stated by the source.
B1: Gamma-crystallin C, residues 4 to 79; numbered along this chain, P07315 (parent)
chain: ITFYEDRAFQGRSYETTTDCPNLQPYFSRCNSIRVESGCWMLYERPNYQGQQYLLRRGEYPDYQQWMGLSDSIRSC
B2: Tyrosine-protein kinase Lck, residues 63 to 120; numbered along this chain, P06239 (parent)
chain: DNLVIALHSYEPSHDGDLGFEKGEQLRILEQSGEWWKAQSLTTGQEGFIPFNFVAKAN

Variants of: B1
Experiment: abundance fitness (aPCA) (normalised: wild type 0, dead -1); higher = more abundant; growth selection in yeast, the domain comes from the species named
Settings: Homo sapiens

Point of comparison: Y63P, abundance fitness 0.094 ± 0.092. Against it:
- T17N — lower, -0.24 ± 0.21
- T17R — within error, 0.034 ± 0.11
- N22T — within error, 0.097 ± 0.11
- E5L — lower, -0.334 ± 0.16
- Y53S — within error, 0.022 ± 0.1
- Y53T — lower, -0.146 ± 0.14
- I1V — within error, -0.032 ± 0.27
- W40E — lower, -0.978 ± 0.2
- W40G — lower, -0.435 ± 0.063
- L42C — within error, -0.031 ± 0.18
- Y63L — lower, -0.097 ± 0.076
- E59W — lower, -0.275 ± 0.099
- E59G — within error, 0.019 ± 0.048
- G58S — within error, -0.039 ± 0.081
- C76M — lower, -0.192 ± 0.14
- G11C — lower, -0.299 ± 0.12
- G11W — lower, -0.955 ± 0.19
- R56Y — within error, 0.255 ± 0.24
- R56E — within error, 0.005 ± 0.086
- R56M — within error, 0.118 ± 0.095
- T16M — within error, 0.074 ± 0.17
- T16I — within error, -0.098 ± 0.13
- T16C — within error, 0.003 ± 0.13
- Q49N — within error, -0.053 ± 0.16
- Q24Y — within error, 0.011 ± 0.24
- Q24R — within error, 0.007 ± 0.075
- F9A — within error, -0.139 ± 0.15
- C30L — lower, -0.299 ± 0.074
- T2Y — within error, 0.088 ± 0.34
- P21L — within error, -0.023 ± 0.059
- I33W — lower, -0.776 ± 0.34
- M41W — within error, 0.039 ± 0.1
- Q65S — within error, -0.042 ± 0.064
- Y14R — within error, -0.05 ± 0.054
- L55T — lower, -0.318 ± 0.17
- I73C — within error, 0.047 ± 0.091
- I73M — within error, 0.106 ± 0.094
- S28W — lower, -0.15 ± 0.11
- D6C — within error, 0.069 ± 0.19
- C39D — lower, -0.133 ± 0.12
- Y43M — lower, -0.296 ± 0.18
- Y43H — within error, 0.055 ± 0.11
- R7G — within error, -0.02 ± 0.064
- S70K — within error, -0.114 ± 0.17
- S70V — within error, 0.075 ± 0.048
- L69S — lower, -0.153 ± 0.076
- Y4R — lower, -0.99 ± 0.16
- Q64S — lower, -0.188 ± 0.082
- L23R — lower, -1.01 ± 0.23
- T18L — within error, -0.023 ± 0.084
- F3N — lower, -0.826 ± 0.21
- D71T — within error, -0.059 ± 0.12
- L54M — within error, -0.044 ± 0.089
- Q51G — within error, -0.047 ± 0.09
- P61S — within error, 0.004 ± 0.08
- M67S — within error, -0.057 ± 0.11
- M67N — within error, -0.065 ± 0.17
- E44M — within error, 0.355 ± 0.29
- V35R — lower, -0.893 ± 0.42
- V35W — lower, -1.08 ± 0.44
- R34V — within error, -0.039 ± 0.11
- Q52F — within error, 0.093 ± 0.23
- Q52D — within error, 0.102 ± 0.3
- A8T — within error, -0.016 ± 0.14

Variants of: B2
Experiment: as above
Settings: Homo sapiens

Point of comparison: I49P, abundance fitness -0.759 ± 0.17. Against it:
- G44A — higher, -0.264 ± 0.09
- G44T — within error, -0.557 ± 0.17
- G44Y — within error, -0.467 ± 0.2
- G44F — higher, -0.394 ± 0.19
- G44P — within error, -1.07 ± 0.3
- G44N — higher, -0.193 ± 0.15
- G44Q — higher, -0.24 ± 0.12
- G44S — higher, -0.268 ± 0.088
- G44M — higher, -0.272 ± 0.18
- G44W — within error, -0.541 ± 0.11
- G44E — higher, -0.222 ± 0.11
- G44R — higher, -0.22 ± 0.078
- G44I — within error, -0.591 ± 0.24
- G44H — higher, -0.321 ± 0.13
- G44C — higher, -0.446 ± 0.1
- G44V — within error, -0.819 ± 0.1
- G44L — higher, -0.271 ± 0.082
- G47P — within error, -0.687 ± 0.15
- G47F — within error, -0.982 ± 0.45
- G47I — within error, -1.02 ± 0.3
- G47Q — within error, -0.986 ± 0.18
- G47H — within error, -0.81 ± 0.21
- G47W — within error, -0.831 ± 0.15
- G47R — within error, -0.687 ± 0.085
- G47V — within error, -0.807 ± 0.09
- G47S — within error, -0.931 ± 0.12
- G47M — within error, -0.884 ± 0.17
- G47T — within error, -0.831 ± 0.15
- G47E — within error, -0.831 ± 0.12
- G47D — within error, -0.912 ± 0.15
- G47C — within error, -1.07 ± 0.18
- G47L — within error, -0.789 ± 0.1
- T42P — within error, -0.715 ± 0.14
- T42V — higher, -0.001 ± 0.11
- T42S — higher, -0.031 ± 0.078
- T42Y — higher, -0.129 ± 0.15
- T42R — higher, -0.059 ± 0.064
- T42W — higher, -0.24 ± 0.078
- T42N — higher, 0.034 ± 0.14
- T42Q — higher, -0.057 ± 0.12
- P50L — within error, -0.995 ± 0.12
- P50T — within error, -0.851 ± 0.15
- P50A — within error, -1 ± 0.2
- P50M — within error, -1.03 ± 0.18
- P50H — within error, -0.474 ± 0.15
- P50I — within error, -0.874 ± 0.24
- P50F — within error, -0.885 ± 0.21
- P50E — lower, -1.21 ± 0.28
- P50G — within error, -0.888 ± 0.1
- P50Y — within error, -1.08 ± 0.34
- P50K — within error, -0.719 ± 0.15
- P50V — within error, -0.936 ± 0.13
- P50W — within error, -0.709 ± 0.16
- P50N — within error, -0.652 ± 0.18
- P50D — within error, -0.73 ± 0.3
- P50S — within error, -0.796 ± 0.12
- I49W — within error, -0.967 ± 0.13
- I49R — within error, -0.792 ± 0.079
- I49G — within error, -0.905 ± 0.11
- I49S — within error, -0.939 ± 0.12
- I49V — higher, -0.094 ± 0.071
- I49Q — within error, -0.796 ± 0.17
- I49A — within error, -0.646 ± 0.11
- I49M — within error, -0.663 ± 0.24
- I49T — within error, -0.622 ± 0.14
- I49Y — within error, -1.2 ± 0.28
- I49L — higher, -0.367 ± 0.079
- I49F — higher, -0.427 ± 0.16
- I49K — within error, -0.771 ± 0.18
- I49N — within error, -0.828 ± 0.21
- I49C — within error, -0.67 ± 0.15
- I49E — within error, -0.996 ± 0.14
- I49D — within error, -0.801 ± 0.18
- I49H — within error, -0.794 ± 0.23
- T43K — within error, -0.698 ± 0.16
- T43L — within error, -0.831 ± 0.11
- T43Y — within error, -0.85 ± 0.2
- T43M — within error, -0.766 ± 0.17
- T43S — higher, -0.101 ± 0.088
- T43A — within error, -0.617 ± 0.11
- T43E — within error, -0.643 ± 0.13
- T43P — within error, -0.909 ± 0.16
- T43N — higher, -0.277 ± 0.21
- T43I — within error, -0.941 ± 0.26
- T43G — within error, -0.658 ± 0.063
- T43C — within error, -0.949 ± 0.25
- T43V — within error, -0.854 ± 0.097
- T43Q — within error, -0.549 ± 0.14
- T43W — within error, -1.1 ± 0.18
- T43R — within error, -0.624 ± 0.085
- T43F — within error, -0.957 ± 0.26
- T43H — within error, -0.622 ± 0.24
- T43D — higher, -0.446 ± 0.12
- V54Y — within error, -0.826 ± 0.16
- V54R — within error, -0.813 ± 0.081
- V54A — within error, -0.663 ± 0.11
- V54P — within error, -0.732 ± 0.15
- V54Q — within error, -0.901 ± 0.21
- V54H — within error, -0.967 ± 0.23
- V54N — within error, -0.859 ± 0.24
- V54C — higher, -0.375 ± 0.098

Source: the Human Domainome abundance scans (Beltran et al. 2025)
